# Experimental data taken from patent US20230227547A1, “ANTIBODY-PAYLOAD CONJUGATES WITH ENHANCED DELIVERY DOMAIN AND USES THEREOF” (IPROGEN BIOTECH INC., priority 2019, published 2023).
# Target: CD22 (human) (UniProt P20273)
# Assay: cell-based or functional assay
Substance,"IC50 (nM), XTT viability, RL cells, 72 h","IC50 (nM), XTT viability, Ramos cells, 72 h"
Anti-CD22 mAb-MMAE8 (Inotuzumab ADC) (antibody),0.26 nM,0.04 nM
Anti-CD22 mAb-LL37-MMAE8 (Inotuzumab ADC with LL37) (antibody),0.235 nM,0.035 nM
